In patent US20160266124A1 (published 2016) one finds Kd data, which are given here for two molecules.

The assay concerns the target 15F12. As to the kind of experiment: SPR. (In general: Surface plasmon resonance follows binding to a sensor surface in real time, without labels.)

B1: pHP1 (other)
chain: VDSGNDVTDIADDGCPKPPEIAHGYVEHSVRYQCKNYYKLRTEGDGVYTLNNEKQWINKAVGDKLPECEAVCGKPKNPANPVQRILGGHLDAKGSFPWQAKMVSHHNLTTGATLINEQWLLTTAKNLFLNHSENATAKDIAPTLTLYVGKKQLVEIEKVVLHPNYSQVDIGLIKLKQKVSVNERVMPICLPSKDYAEVGRVGYVSGWGRNANFKFTDHLKYVMLPVADQDQCIRHYEGSTVPEKKTPKSPVGVQPILNEHTFCAGMSKYQEDTCYGDAGSAFAVHDLEEDTWYATGILSFDKSCAVAEYGVYVKVTSIQDWVQKTIAEN
Regarding B1, the Kd amounted to 0.3 nM.

B2: pHP2 (other)
chain: VDSGNDVTDIADDGCPKPPEIAHGYVEHSVRYQCKNYYKLRTEGDGVYTLNDKKQWINKAVGDKLPECEADDGCPKPPEIAHGYVEHSVRYQCKNYYKLRTEGDGVYTLNNEKQWINKAVGDKLPECEAVCGKPKNPANPVQRILGGHLDAKGSFPWQAKMVSHHNLTTGATLINEQWLLTTAKNLFLNHSENATAKDIAPTLTLYVGKKQLVEIEKVVLHPNYSQVDIGLIKLKQKVSVNERVMPICLPSKDYAEVGRVGYVSGWGRNANFKFTDHLKYVMLPVADQDQCIRHYEGSTVPEKKTPKSPVGVQPILNEHTFCAGMSKYQEDTCYGDAGSAFAVHDLEEDTWYATGILSFDKSCAVAEYGVYVKVTSIQDWVQKTIAENHHHHHH
Take B2: binding was put at a Kd of 0.3 nM.

The term Kd denotes the equilibrium constant for the complex coming apart. A lower Kd goes with a tighter complex.
